Assay [1] has as its target T1, soluble His-tagged human CD39 ECD protein (human, UniProt P49961 38-478).
T1 construct: also called human CD39 ECD His-tagged antigen; Sino Biological Cat. No. 16020-H08B
T1 sequence: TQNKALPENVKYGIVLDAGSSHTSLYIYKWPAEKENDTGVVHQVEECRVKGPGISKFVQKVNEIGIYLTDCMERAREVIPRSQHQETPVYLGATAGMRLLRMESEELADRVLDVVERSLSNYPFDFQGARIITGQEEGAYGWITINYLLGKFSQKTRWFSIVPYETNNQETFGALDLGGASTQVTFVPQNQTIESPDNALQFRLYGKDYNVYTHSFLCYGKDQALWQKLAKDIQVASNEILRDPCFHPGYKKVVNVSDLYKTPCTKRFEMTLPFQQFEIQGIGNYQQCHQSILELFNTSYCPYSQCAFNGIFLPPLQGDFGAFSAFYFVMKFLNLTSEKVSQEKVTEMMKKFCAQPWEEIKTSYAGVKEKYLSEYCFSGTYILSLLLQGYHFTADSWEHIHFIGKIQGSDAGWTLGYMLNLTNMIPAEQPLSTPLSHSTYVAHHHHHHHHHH
In words: SPR (Biacore 8K), antibody captured via anti-human Fc, CD39 ECD analyte.

Assay [2] deals with T2, human CD39 expressed on the cell surface (human, UniProt P49961 1-510).
T2 sequence: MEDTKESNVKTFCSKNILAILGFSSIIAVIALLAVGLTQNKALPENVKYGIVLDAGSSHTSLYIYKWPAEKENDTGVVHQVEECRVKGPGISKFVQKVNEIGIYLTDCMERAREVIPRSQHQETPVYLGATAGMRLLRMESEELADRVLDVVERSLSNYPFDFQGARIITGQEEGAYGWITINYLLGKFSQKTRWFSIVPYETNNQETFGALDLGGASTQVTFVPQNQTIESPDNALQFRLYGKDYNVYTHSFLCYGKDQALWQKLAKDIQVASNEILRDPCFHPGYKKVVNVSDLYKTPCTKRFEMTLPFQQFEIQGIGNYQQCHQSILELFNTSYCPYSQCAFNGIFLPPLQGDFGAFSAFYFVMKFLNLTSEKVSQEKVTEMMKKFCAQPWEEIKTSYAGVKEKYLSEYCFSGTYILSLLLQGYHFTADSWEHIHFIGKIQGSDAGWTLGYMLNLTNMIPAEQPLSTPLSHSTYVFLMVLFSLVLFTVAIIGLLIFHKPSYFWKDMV
In words: cell-based or functional assay.

Assay [3] concerns the target T3, cynomolgus monkey CD39 expressed on HEK-293 cells (cynomolgus monkey, UniProt P49961 5-510 (human entry)).
T3 construct: also called Cynomolgus Monkey CD39-HEK293
T3 chain: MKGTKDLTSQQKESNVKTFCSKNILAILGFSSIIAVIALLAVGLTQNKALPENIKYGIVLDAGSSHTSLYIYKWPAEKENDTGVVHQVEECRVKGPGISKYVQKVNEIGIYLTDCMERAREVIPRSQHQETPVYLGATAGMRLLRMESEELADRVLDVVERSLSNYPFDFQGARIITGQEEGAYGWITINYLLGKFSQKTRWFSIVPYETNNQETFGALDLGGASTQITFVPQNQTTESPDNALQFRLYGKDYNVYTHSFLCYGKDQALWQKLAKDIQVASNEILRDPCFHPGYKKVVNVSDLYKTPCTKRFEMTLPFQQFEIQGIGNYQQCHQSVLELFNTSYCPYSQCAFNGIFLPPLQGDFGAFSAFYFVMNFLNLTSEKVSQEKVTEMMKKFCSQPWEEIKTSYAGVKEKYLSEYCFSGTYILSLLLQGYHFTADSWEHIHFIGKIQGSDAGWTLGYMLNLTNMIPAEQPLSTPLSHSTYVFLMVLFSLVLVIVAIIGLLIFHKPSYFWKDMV
In words: FACS on HEK293 cells overexpressing cynomolgus CD39.

Assay [4] has as its target T4, murine CD39 expressed on HEK-293 cells (murine, UniProt P55772 1-510).
T4 construct: also called mouse CD39
T4 sequence: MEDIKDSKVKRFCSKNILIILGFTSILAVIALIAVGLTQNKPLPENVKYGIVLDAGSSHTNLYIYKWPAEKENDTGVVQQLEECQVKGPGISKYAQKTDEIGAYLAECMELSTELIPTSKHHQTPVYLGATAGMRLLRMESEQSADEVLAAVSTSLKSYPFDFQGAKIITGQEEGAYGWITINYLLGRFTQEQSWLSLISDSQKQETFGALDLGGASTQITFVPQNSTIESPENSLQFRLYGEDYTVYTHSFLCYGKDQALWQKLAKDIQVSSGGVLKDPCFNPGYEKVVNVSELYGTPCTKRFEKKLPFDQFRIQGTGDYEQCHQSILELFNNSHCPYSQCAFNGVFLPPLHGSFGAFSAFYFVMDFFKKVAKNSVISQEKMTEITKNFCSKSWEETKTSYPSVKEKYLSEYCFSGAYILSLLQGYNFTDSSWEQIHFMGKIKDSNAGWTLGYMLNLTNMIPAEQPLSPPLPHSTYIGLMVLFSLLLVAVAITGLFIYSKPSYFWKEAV
Briefly: FACS on HEK-293 cells overexpressing murine CD39 (method of Example 1).

The target of assay [5] is T2, human CD39 expressed on the cell surface. Briefly: flow cytometry on purified human CD14+ monocytes, 400 uM ATP.
Assay [6] shares this target. In words: flow cytometry on purified human CD14+ monocytes, 0 uM ATP. For orientation: A flow cytometer gives signals particle by particle.
Assay [7] has the same target. Briefly: cell-based or functional assay. This is another data set of the same source.
Assay [8] deals with T5, recombinant human CD39 (soluble) (human, UniProt P49961 38-478, limits assumed).
T5 sequence (looked up): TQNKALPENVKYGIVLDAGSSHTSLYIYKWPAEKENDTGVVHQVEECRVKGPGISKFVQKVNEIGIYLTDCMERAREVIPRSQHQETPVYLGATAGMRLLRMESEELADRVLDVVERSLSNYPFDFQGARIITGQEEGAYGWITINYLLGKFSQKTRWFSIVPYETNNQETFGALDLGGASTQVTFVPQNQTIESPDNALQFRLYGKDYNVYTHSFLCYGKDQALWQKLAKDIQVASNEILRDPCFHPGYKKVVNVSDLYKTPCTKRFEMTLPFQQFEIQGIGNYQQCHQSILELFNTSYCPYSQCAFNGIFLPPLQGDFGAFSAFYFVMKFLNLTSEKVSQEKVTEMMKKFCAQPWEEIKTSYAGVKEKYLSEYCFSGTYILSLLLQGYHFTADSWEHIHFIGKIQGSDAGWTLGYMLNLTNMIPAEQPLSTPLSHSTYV
Briefly: cell-based or functional assay.

The target in assay [9] is T2, human CD39 expressed on the cell surface. In words: FACS on CHO-K1 cells overexpressing human CD39.
In assay [10] the target is T1, soluble His-tagged human CD39 ECD …. Briefly: SPR (Biacore 8K), antibody captured via anti-human Fc, CD39 ECD analyte, 25 C. Background: SPR reads the build-up and loss of mass on a sensor chip optically.
Assay [11] has as its target T2, human CD39 expressed on the cell surface. Briefly: cell-based or functional assay. The source holds these as a separate data set.
For assay [12], the target named is T1, soluble His-tagged human CD39 ECD …. Briefly: SPR (Biacore 8K), antibody captured via anti-human Fc, CD39 ECD analyte. The source holds these as a separate data set.

B1: ch39_IGG4.P (antibody, human IgG4 S228P, kappa)
heavy: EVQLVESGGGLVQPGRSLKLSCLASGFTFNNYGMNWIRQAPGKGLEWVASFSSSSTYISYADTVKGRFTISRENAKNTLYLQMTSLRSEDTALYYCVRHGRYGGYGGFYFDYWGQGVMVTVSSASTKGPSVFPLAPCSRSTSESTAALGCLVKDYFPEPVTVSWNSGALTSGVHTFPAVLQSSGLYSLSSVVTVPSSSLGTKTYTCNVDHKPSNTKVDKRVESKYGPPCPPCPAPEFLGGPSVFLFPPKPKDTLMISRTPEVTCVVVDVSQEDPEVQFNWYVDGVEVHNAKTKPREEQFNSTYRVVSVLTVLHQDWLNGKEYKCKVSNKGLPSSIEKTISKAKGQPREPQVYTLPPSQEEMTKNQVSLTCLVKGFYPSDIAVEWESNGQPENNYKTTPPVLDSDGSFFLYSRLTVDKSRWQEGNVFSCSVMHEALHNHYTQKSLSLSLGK
light: DTVLTQSPALAVSPGERVSISCRASEGVKSYMHWYQQKPGQQPKLLIYKASNLASGVPARFSGSGSGTDFTLTIDPVEADDTATYFCQQSWNDPTFGAGTKLELKRTVAAPSVFIFPPSDEQLKSGTASVVCLLNNFYPREAKVQWKVDNALQSGNSQESVTEQDSKDSTYSLSSTLTLSKADYEKHKVYACEVTHQGLSSPVTKSFNRGEC
notes: rat/human chimera of antibody 39, human IgG4 (S228P), kappa
In general, Kd refers to the equilibrium constant for the complex coming apart. A word on the koff: it is the rate constant with which the complex falls apart. Usually kon stands for the rate constant with which the complex forms. The EC50 is the concentration giving half of the maximal effect. For B1, in assay [1], the Kd came out at 0.336 nM, the koff is 9.4e-05 s⁻¹ and the kon is 280000 M⁻¹ s⁻¹. In addition, in [2], the “IC50, CD39 enzymatic inhibition on THP-1 cells, 20 uM ATP” value was determined as 0.11 nM and the “Max Inhibition (%), THP-1 cells” value came to 67%. In assay [3], this molecule had an EC50 of 0.32 nM. In assay [4], the binding result is listed as “no binding”. Moreover, the EC50 in assay [5] came out at 1.3 nM. For the same molecule, a half-maximal effect in assay [6] (EC50) was put at 0.69 nM. Further, in [7], the “IC50, CD39 enzymatic inhibition on SK-MEL-5 cells, 20 uM ATP” value came to 0.56 nM and the “Max Inhibition (%), SK-MEL-5 cells” value stood at 63%. For the same molecule, in [8], the “IC50, inhibition of recombinant CD39 enzymatic activity, 20 uM ATP” value (shortened to “IC50, inhibition”) was 2.3 nM and the “Max Inhibition (%), recombinant CD39, 20 uM ATP” value (from here on “Max Inhibition (%) … 20 uM ATP”) was 100%. In addition, the midpoint of the response in [9], the EC50, lay at 0.79 nM. In assay [10], this molecule returned a Kd of 0.214 nM, a koff of 7.45e-05 s⁻¹ and a kon of 348000 M⁻¹ s⁻¹. For the same molecule, the “Human THP-1 CD39 inhibition IC50” value in assay [11] stood at 0.042 nM.

B2: ch31_IGG4.P (antibody, human IgG4 S228P, kappa, V domains shown)
VH: EVHLQQSGAALVRPGTSVKLPCKVSGDSITAYFMHFVRQRPGQGLEWMGRIDPDHERTKYAEKFKNRASLTSETSSNTVFLQLTSLTSEDTATYFCTTERVPGFETDYWGQGVMVTVSS
VL: DIVLTQSPTLAVSLGQRATISCRTNQTVDHYGTTYMNWYQQKPGQQPKLLIYLASSLASGIPARFSGRGSGTDFTLTIDPVEADDTATYYCQQSRNLWTFGGGTKLELKR
notes: rat/human chimera of antibody 31, human IgG4 (S228P), kappa
As to B2, in assay [2], the “IC50, CD39 enzymatic inhibition on THP-1 cells, 20 uM ATP” value stood at 0.14 nM and the “Max Inhibition (%), THP-1 cells” value worked out at 86%. In [3], this molecule came in with an EC50 of 2.55 nM. Also, in [4], the binding result is reported as “no binding”. This molecule also had an EC50 in assay [5] of 28 nM. In assay [12], this molecule registered a Kd of 0.129 nM, a koff of 0.00015 s⁻¹ and a kon of 1.16e+06 M⁻¹ s⁻¹. The EC50 in assay [6] was 27 nM. In [7], the “IC50, CD39 enzymatic inhibition on SK-MEL-5 cells, 20 uM ATP” value was found to be 2.4 nM and the “Max Inhibition (%), SK-MEL-5 cells” value turned out to be 63%. Further, in assay [8], the “IC50, inhibition” value came to 1.3 nM and the “Max Inhibition (%) … 20 uM ATP” value stood at 100%. The molecule further registered an EC50 in assay [9] of 4.44 nM. In assay [10], this molecule gave a Kd of 0.113 nM, a koff of 0.000125 s⁻¹ and a kon of 1.1e+06 M⁻¹ s⁻¹. Also, the “Human THP-1 CD39 inhibition IC50” value in assay [11] stood at 0.09 nM.

B3: ch19_IGG4.P (antibody, human IgG4 S228P, kappa, V domains shown)
VH: QVQLKETGPGLVQPTQTLSITCTVSGFSLTSYFTQWVRQTPGKGLEWMGFIRSGGSTQYNSAFKSRLSISRDTSKNQVFLKMNSLKTEDTGVYYCARDRPDYHDGTYGVLDVWGQGASVTVSS
VL: DIRMTQSPASLSASLGETVNIECLASEDIDSDLAWYQKKPGKSPQLLIYNGNALQNGVPSRFSGSGSGTHFSLKINSLQSEDVATYFCQQYINYPYTFGGGTKLELRR
notes: rat/human chimera of antibody 19, human IgG4 (S228P), kappa
Regarding B3, in assay [2], the “IC50, CD39 enzymatic inhibition on THP-1 cells, 20 uM ATP” value was determined as 0.75 nM and the “Max Inhibition (%), THP-1 cells” value turned out to be 75%. Further, it took 4.3 nM to reach a half-maximal effect in assay [3] (EC50). Moreover, in [4], the binding result was “no binding”. The same molecule showed an EC50 in assay [5] of 49 nM. For the same molecule, the EC50 in assay [6] turned out to be 61 nM. For the same molecule, in assay [7], the “IC50, CD39 enzymatic inhibition on SK-MEL-5 cells, 20 uM ATP” value came out at 5.4 nM and the “Max Inhibition (%), SK-MEL-5 cells” value amounted to 55%. Besides, in assay [8], the “IC50, inhibition” value is 1.8 nM and the “Max Inhibition (%) … 20 uM ATP” value was 100%. This molecule also showed an EC50 in [9] of 9.04 nM. In assay [10], this molecule yielded a Kd of 0.443 nM, a koff of 0.0004 s⁻¹ and a kon of 902000 M⁻¹ s⁻¹. Besides, the “Human THP-1 CD39 inhibition IC50” value in [11] worked out at 0.44 nM.

(Values after patent US20250084178A1 (ARCUS BIOSCIENCES, published 2025).)
